From the supplement of paper PMC10567573

B1: WEE1 (parent)
chain: INPFTPDSLLLHSSGQCRRRKRTY

Variants of: B1
Experiment: protein stability index of a GFP-peptide fusion (GPS, HEK-293T) (PSI 1-6); higher = more stable
Settings: c terminus: a fixed tail appended
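Further: lentivirally expressed fusions sorted by FACS into six bins by GFP to DsRed ratio, PSI derived from sequencing read proportions per bin multiplied by bin number.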

Variant	protein stability index
INPFTPDSLLYHSSGQCRRRKRTY [L11Y]	3.75
INPFTPDSLLCHSSGQCRRRKRTY [L11C]	3.75
INPFTPDSLLMHSSGQCRRRKRTY [L11M]	3.94
INPFTPDSLLHHSSGQCRRRKRTY [L11H]	3.47
INPFTPDSLLWHSSGQCRRRKRTY [L11W]	2.99
INPFTPDSLLPHSSGQCRRRKRTY [L11P]	4.55
INPFTPDSLLFHSSGQCRRRKRTY [L11F]	3.01
INPFTPDSLLGHSSGQCRRRKRTY [L11G]	3.95
INPFTPDSLLEHSSGQCRRRKRTY [L11E]	4.42
INPFTPDSLLKHSSGQCRRRKRTY [L11K]	4.2
INPFTPDSLLTHSSGQCRRRKRTY [L11T]	3.54
INPFTPDSLLIHSSGQCRRRKRTY [L11I]	3.97
INPFTPDSLLQHSSGQCRRRKRTY [L11Q]	3.39
INPFTPDSLLSHSSGQCRRRKRTY [L11S]	3.96
INPFTPDSLLVHSSGQCRRRKRTY [L11V]	3.04
INPFTPDSLLNHSSGQCRRRKRTY [L11N]	3.92
INPFTPDSLLAHSSGQCRRRKRTY [L11A]	3.76
INPFTPDSLLDHSSGQCRRRKRTY [L11D]	4.11
INPFTPDSLLLHSSLQCRRRKRTY [G15L]	3.56
INPFTPDSLLLHSSRQCRRRKRTY [G15R]	4.12
INPFTPDSLLLHSSTQCRRRKRTY [G15T]	3.21
INPFTPDSLLLHSSDQCRRRKRTY [G15D]	3.39
INPFTPDSLLLHSSNQCRRRKRTY [G15N]	3.89
INPFTPDSLLLHSSQQCRRRKRTY [G15Q]	3.72

Variant	protein stability index
INPFTPDSLLLHSSAQCRRRKRTY [G15A]	3.71
INPFTPDSLLLHSSCQCRRRKRTY [G15C]	2.26
INPFTPDSLLLHSSVQCRRRKRTY [G15V]	2.79
INPFTPDSLLLHSSEQCRRRKRTY [G15E]	3.41
INPFTPDSLLLHSSYQCRRRKRTY [G15Y]	2.9
INPFTPDSLLLHSSMQCRRRKRTY [G15M]	2.84
INPFTPDSLLLHSSHQCRRRKRTY [G15H]	2.72
INPFTPDSLLLHSSIQCRRRKRTY [G15I]	2.92
INPFTPDSLLLHSSKQCRRRKRTY [G15K]	3.85
INPFTPDSLLLHSSSQCRRRKRTY [G15S]	3.02
INPFTPDSLLLHSSPQCRRRKRTY [G15P]	3.05
INPFTPDSLLLHSSWQCRRRKRTY [G15W]	2.54
INPFTPDSLLLHSSFQCRRRKRTY [G15F]	1.99
INPFTPDSLLLHSEGQCRRRKRTY [S14E]	4.31
INPFTPDSLLLHSFGQCRRRKRTY [S14F]	2.51
INPFTPDSLLLHSAGQCRRRKRTY [S14A]	3.3
INPFTPDSLLLHSIGQCRRRKRTY [S14I]	3.16
INPFTPDSLLLHSQGQCRRRKRTY [S14Q]	3.89
INPFTPDSLLLHSCGQCRRRKRTY [S14C]	2.41
INPFTPDSLLLHSVGQCRRRKRTY [S14V]	2.62
INPFTPDSLLLHSTGQCRRRKRTY [S14T]	3.37
INPFTPDSLLLHSGGQCRRRKRTY [S14G]	2.82
INPFTPDSLLLHSKGQCRRRKRTY [S14K]	2.98
INPFTPDSLLLHSPGQCRRRKRTY [S14P]	3.54

Variant	protein stability index
INPFTPDSLLLHSHGQCRRRKRTY [S14H]	2.93
INPFTPDSLLLHSWGQCRRRKRTY [S14W]	2.46
INPFTPDSLLLHSYGQCRRRKRTY [S14Y]	2.36
INPFTPDSLLLHSNGQCRRRKRTY [S14N]	3.61
INPFTPDSLLLHSDGQCRRRKRTY [S14D]	3.94
INPFTPDSLLLHSRGQCRRRKRTY [S14R]	3.81
INPFTPDSLLLHSLGQCRRRKRTY [S14L]	2.35
INPFTPDSLLLHSMGQCRRRKRTY [S14M]	2.42
INPFTPDSLLLHSSGQCDRRKRTY [R18D]	3.78
INPFTPDSLLLHSSGQCARRKRTY [R18A]	3.46
INPFTPDSLLLHSSGQCIRRKRTY [R18I]	2.86
INPFTPDSLLLHSSGQCGRRKRTY [R18G]	3.31
INPFTPDSLLLHSSGQCFRRKRTY [R18F]	2.9
INPFTPDSLLLHSSGQCERRKRTY [R18E]	3.67
INPFTPDSLLLHSSGQCHRRKRTY [R18H]	3.39
INPFTPDSLLLHSSGQCCRRKRTY [R18C]	2.94
INPFTPDSLLLHISGQCRRRKRTY [S13I]	2.85
INPFTPDSLLLHESGQCRRRKRTY [S13E]	4.01
INPFTPDSLLLHVSGQCRRRKRTY [S13V]	2.61
INPFTPDSLLLHGSGQCRRRKRTY [S13G]	3.17
INPFTPDSLLLHASGQCRRRKRTY [S13A]	2.6
INPFTPDSLLLHNSGQCRRRKRTY [S13N]	3.74
INPFTPDSLLLHCSGQCRRRKRTY [S13C]	2.21
INPFTPDSLLLHHSGQCRRRKRTY [S13H]	4.14

Variant	protein stability index
INPFTPDSLLLHDSGQCRRRKRTY [S13D]	4.08
INPFTPDSLLLHRSGQCRRRKRTY [S13R]	3.12
INPFTPDSLLLHLSGQCRRRKRTY [S13L]	2.64
INPFTPDSLLLHFSGQCRRRKRTY [S13F]	2.3
INPFTPDSLLLHQSGQCRRRKRTY [S13Q]	3.44
INPFTPDSLLLHMSGQCRRRKRTY [S13M]	2.84
INPFTPDSLLLHTSGQCRRRKRTY [S13T]	3.74
INPFTPDSLLLHKSGQCRRRKRTY [S13K]	3.69
INPFTPDSLLLHYSGQCRRRKRTY [S13Y]	3.29
INPFTPDSLLLHWSGQCRRRKRTY [S13W]	2.54
INPFTPDSLLLHPSGQCRRRKRTY [S13P]	3.63
INPFTPDMLLLHSSGQCRRRKRTY [S8M]	2.75
INPFTPDQLLLHSSGQCRRRKRTY [S8Q]	3.73
INPFTPDVLLLHSSGQCRRRKRTY [S8V]	3.25
INPFTPDKLLLHSSGQCRRRKRTY [S8K]	3.35
INPFTPDTLLLHSSGQCRRRKRTY [S8T]	2.81
INPFTPDPLLLHSSGQCRRRKRTY [S8P]	2.77
INPFTPDWLLLHSSGQCRRRKRTY [S8W]	3.5
INPFTPDLLLLHSSGQCRRRKRTY [S8L]	2.82
INPFTPDYLLLHSSGQCRRRKRTY [S8Y]	2.65
INPFTPDNLLLHSSGQCRRRKRTY [S8N]	3.75
INPFTPDRLLLHSSGQCRRRKRTY [S8R]	2.71
